Assay [1] addresses FcγRIIIa F158 (human) (UniProt P08637). The assay can be described thus: SPR (Biacore 8K), receptor captured via anti-His antibody. A general note: Surface plasmon resonance follows binding to a sensor surface in real time, without labels.
Assay [2] concerns the target FcγRIIIa V158 (human) (UniProt P08637). Described as above.
Another assay has as its target FcγRIIb (UniProt P31994). The description is as above.
Assay [3] addresses FcγRIIIa F158 (human) (UniProt P08637). The assay can be described thus: SPR (Biacore 8K), ratio of 1/Kd values.
Assay [4] concerns the target FcγRIIIa V158 (human) (UniProt P08637). The assay can be described thus: SPR (Biacore 8K), ratio of 1/Kd values.

Chain of FcγRIIIa V158 (human) (P08637 17-208 F176V limits assumed): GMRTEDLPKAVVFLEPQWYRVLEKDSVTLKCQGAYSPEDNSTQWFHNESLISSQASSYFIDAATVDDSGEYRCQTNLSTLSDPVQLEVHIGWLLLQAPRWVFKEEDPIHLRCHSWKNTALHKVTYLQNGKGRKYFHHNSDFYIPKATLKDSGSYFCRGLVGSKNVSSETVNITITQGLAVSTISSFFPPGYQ
Chain of FcγRIIIa F158 (human) (P08637 17-208 limits assumed): as the sequence (P08637 17-208 F176V limits assumed) above, with V160F counted along it
Chain of FcγRIIb (P31994 46-217 limits assumed): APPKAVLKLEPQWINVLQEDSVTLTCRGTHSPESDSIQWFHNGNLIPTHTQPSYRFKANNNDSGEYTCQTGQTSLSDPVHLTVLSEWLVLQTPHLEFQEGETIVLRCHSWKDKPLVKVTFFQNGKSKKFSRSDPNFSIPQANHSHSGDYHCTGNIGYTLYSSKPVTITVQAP

Broadly, the Kd is a measure of binding affinity in units of concentration. A higher Kd goes with a looser complex. On to Zolbetuximab (antibody), for which the Kd with FcγRIIIa F158 (human) [1] was 423 nM; with FcγRIIIa V158 (human) [2], 86.4 nM; in the assay with FcγRIIb it was 13900 nM. The A/I (F158), affinity towards FcγRIIIa over affinity towards FcγRIIb in the assay with FcγRIIIa F158 (human) [3] stood at 32.9. The A/I (V158), affinity towards FcγRIIIa over affinity towards FcγRIIb with FcγRIIIa V158 (human) [4] turned out to be 161.

Source of the values: US20240294594A1.
